One experiment deals with human GLP-1 receptor (human, UniProt P43220 24-463). In words: cell-based or functional assay.
A further experiment addresses T1, human GIP receptor (human, UniProt P48546 22-466).
T1 sequence (looked up): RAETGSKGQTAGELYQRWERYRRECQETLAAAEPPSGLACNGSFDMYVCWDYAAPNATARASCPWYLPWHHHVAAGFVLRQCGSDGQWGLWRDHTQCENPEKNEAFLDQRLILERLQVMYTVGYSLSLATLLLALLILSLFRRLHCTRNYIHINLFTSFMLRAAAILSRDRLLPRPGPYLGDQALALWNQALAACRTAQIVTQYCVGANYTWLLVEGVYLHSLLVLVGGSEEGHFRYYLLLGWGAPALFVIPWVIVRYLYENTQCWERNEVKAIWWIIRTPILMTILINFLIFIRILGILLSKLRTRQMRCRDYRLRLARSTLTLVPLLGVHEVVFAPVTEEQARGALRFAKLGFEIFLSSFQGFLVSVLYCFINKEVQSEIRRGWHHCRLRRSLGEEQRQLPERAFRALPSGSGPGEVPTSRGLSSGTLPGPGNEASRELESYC
Briefly: cell-based or functional assay.

Starred links: 1 amine or outer side, 2 acyl side, 3 side chain; linkers in the order of their positions; H or OH if unused. Non-standard residues stand in square brackets, D forms with d. Groups on a side chain read outwards from the residue. No end group written: not given here. *: point of attachment. C18 diacid = O=C(O)CCCCCCCCCCCCCCCCC(=O)*; γGlu = O=C(O)[C@H](CCC(=O)[*:2])N[*:1]; εLys = N[C@@H](CCCCN[*:1])C(=O)[*:2]; Aib = CC(C)(N)C(=O)O

B1: Compound No. 42 (peptide)
peptide: Y[Aib]EGTFTSDYSIYLEEQAAREFINWLLAGGPSK([εLys-εLys-γGlu-C18 diacid])GAPPPS-OH
modifications: N-terminus assumed
SMILES: CC[C@H](C)[C@H](NC(=O)[C@H](Cc1ccccc1)NC(=O)[C@H](CCC(=O)O)NC(=O)[C@H](CCCNC(=N)N)NC(=O)[C@H](C)NC(=O)[C@H](C)NC(=O)[C@H](CCC(N)=O)NC(=O)[C@H](CCC(=O)O)NC(=O)[C@H](CCC(=O)O)NC(=O)[C@H](CC(C)C)NC(=O)[C@H](Cc1ccc(O)cc1)NC(=O)[C@@H](NC(=O)[C@H](CO)NC(=O)[C@H](Cc1ccc(O)cc1)NC(=O)[C@H](CC(=O)O)NC(=O)[C@H](CO)NC(=O)[C@@H](NC(=O)[C@H](Cc1ccccc1)NC(=O)[C@@H](NC(=O)CNC(=O)[C@H](CCC(=O)O)NC(=O)C(C)(C)NC(=O)[C@@H](N)Cc1ccc(O)cc1)[C@@H](C)O)[C@@H](C)O)[C@@H](C)CC)C(=O)N[C@@H](CC(N)=O)C(=O)N[C@@H](Cc1c[nH]c2ccccc12)C(=O)N[C@@H](CC(C)C)C(=O)N[C@@H](CC(C)C)C(=O)N[C@@H](C)C(=O)NCC(=O)NCC(=O)N1CCC[C@H]1C(=O)N[C@@H](CO)C(=O)N[C@@H](CCCCNC(=O)[C@@H](N)CCCCNC(=O)[C@@H](N)CCCCNC(=O)CC[C@H](NC(=O)CCCCCCCCCCCCCCCCC(=O)O)C(=O)O)C(=O)NCC(=O)N[C@@H](C)C(=O)N1CCC[C@H]1C(=O)N1CCC[C@H]1C(=O)N1CCC[C@H]1C(=O)N[C@@H](CO)C(=O)O
For B1, in the experiment with human GLP-1 receptor, the “hGLP-1R, CRE Luc 0% HSA EC50 (pM)” value is 2.3 pM and the “hGLP-1R, CRE Luc 1% HSA EC50 (pM)” value is 83.5 pM. In addition, in the experiment with human GIP receptor, the “hGIPR, CRE Luc 0% HSA EC50 (pM)” value stood at 5.9 pM and the “hGIPR, CRE Luc 1% HSA EC50 (pM)” value is 306 pM.

B2: Compound No. 30 (peptide)
peptide: Y[Aib]EGTFTSDYSILLEK([εLys-εLys-γGlu-C18 diacid])QAAHEFIEWLLAGGPSSGAPPPS-OH
modifications: N-terminus assumed
SMILES: CC[C@H](C)[C@H](NC(=O)[C@H](Cc1ccccc1)NC(=O)[C@H](CCC(=O)O)NC(=O)[C@H](Cc1c[nH]cn1)NC(=O)[C@H](C)NC(=O)[C@H](C)NC(=O)[C@H](CCC(N)=O)NC(=O)[C@H](CCCCNC(=O)[C@@H](N)CCCCNC(=O)[C@@H](N)CCCCNC(=O)CC[C@H](NC(=O)CCCCCCCCCCCCCCCCC(=O)O)C(=O)O)NC(=O)[C@H](CCC(=O)O)NC(=O)[C@H](CC(C)C)NC(=O)[C@H](CC(C)C)NC(=O)[C@@H](NC(=O)[C@H](CO)NC(=O)[C@H](Cc1ccc(O)cc1)NC(=O)[C@H](CC(=O)O)NC(=O)[C@H](CO)NC(=O)[C@@H](NC(=O)[C@H](Cc1ccccc1)NC(=O)[C@@H](NC(=O)CNC(=O)[C@H](CCC(=O)O)NC(=O)C(C)(C)NC(=O)[C@@H](N)Cc1ccc(O)cc1)[C@@H](C)O)[C@@H](C)O)[C@@H](C)CC)C(=O)N[C@@H](CCC(=O)O)C(=O)N[C@@H](Cc1c[nH]c2ccccc12)C(=O)N[C@@H](CC(C)C)C(=O)N[C@@H](CC(C)C)C(=O)N[C@@H](C)C(=O)NCC(=O)NCC(=O)N1CCC[C@H]1C(=O)N[C@@H](CO)C(=O)N[C@@H](CO)C(=O)NCC(=O)N[C@@H](C)C(=O)N1CCC[C@H]1C(=O)N1CCC[C@H]1C(=O)N1CCC[C@H]1C(=O)N[C@@H](CO)C(=O)O
For B2, in the experiment with human GLP-1 receptor, the “hGLP-1R, CRE Luc 0% HSA EC50 (pM)” value stood at 7.3 pM and the “hGLP-1R, CRE Luc 1% HSA EC50 (pM)” value stood at 268 pM. Besides, in the experiment with human GIP receptor, the “hGIPR, CRE Luc 0% HSA EC50 (pM)” value turned out to be 3.2 pM and the “hGIPR, CRE Luc 1% HSA EC50 (pM)” value stood at 185 pM.

B3: Compound No. 29 (peptide)
peptide: Y[Aib]EGTFTSDYSILLEK([εLys-εLys-γGlu-C18 diacid])QAAQEFIEWLLAGGPSSGAPPPS-OH
modifications: N-terminus assumed
SMILES: CC[C@H](C)[C@H](NC(=O)[C@H](Cc1ccccc1)NC(=O)[C@H](CCC(=O)O)NC(=O)[C@H](CCC(N)=O)NC(=O)[C@H](C)NC(=O)[C@H](C)NC(=O)[C@H](CCC(N)=O)NC(=O)[C@H](CCCCNC(=O)[C@@H](N)CCCCNC(=O)[C@@H](N)CCCCNC(=O)CC[C@H](NC(=O)CCCCCCCCCCCCCCCCC(=O)O)C(=O)O)NC(=O)[C@H](CCC(=O)O)NC(=O)[C@H](CC(C)C)NC(=O)[C@H](CC(C)C)NC(=O)[C@@H](NC(=O)[C@H](CO)NC(=O)[C@H](Cc1ccc(O)cc1)NC(=O)[C@H](CC(=O)O)NC(=O)[C@H](CO)NC(=O)[C@@H](NC(=O)[C@H](Cc1ccccc1)NC(=O)[C@@H](NC(=O)CNC(=O)[C@H](CCC(=O)O)NC(=O)C(C)(C)NC(=O)[C@@H](N)Cc1ccc(O)cc1)[C@@H](C)O)[C@@H](C)O)[C@@H](C)CC)C(=O)N[C@@H](CCC(=O)O)C(=O)N[C@@H](Cc1c[nH]c2ccccc12)C(=O)N[C@@H](CC(C)C)C(=O)N[C@@H](CC(C)C)C(=O)N[C@@H](C)C(=O)NCC(=O)NCC(=O)N1CCC[C@H]1C(=O)N[C@@H](CO)C(=O)N[C@@H](CO)C(=O)NCC(=O)N[C@@H](C)C(=O)N1CCC[C@H]1C(=O)N1CCC[C@H]1C(=O)N1CCC[C@H]1C(=O)N[C@@H](CO)C(=O)O
For the molecule B3, in the experiment with human GLP-1 receptor, the “hGLP-1R, CRE Luc 0% HSA EC50 (pM)” value came out at 16.8 pM and the “hGLP-1R, CRE Luc 1% HSA EC50 (pM)” value stood at 378 pM. Besides, in the experiment with human GIP receptor, the “hGIPR, CRE Luc 0% HSA EC50 (pM)” value amounted to 3.8 pM and the “hGIPR, CRE Luc 1% HSA EC50 (pM)” value stood at 102 pM.

B4: Compound No. 41 (peptide)
peptide: Y[Aib]EGTFTSDYSK([εLys-εLys-γGlu-C18 diacid])YLEEQAAREFINWLLAGGPSSGAPPPS-OH
modifications: N-terminus assumed
SMILES: CC[C@H](C)[C@H](NC(=O)[C@H](Cc1ccccc1)NC(=O)[C@H](CCC(=O)O)NC(=O)[C@H](CCCNC(=N)N)NC(=O)[C@H](C)NC(=O)[C@H](C)NC(=O)[C@H](CCC(N)=O)NC(=O)[C@H](CCC(=O)O)NC(=O)[C@H](CCC(=O)O)NC(=O)[C@H](CC(C)C)NC(=O)[C@H](Cc1ccc(O)cc1)NC(=O)[C@H](CCCCNC(=O)[C@@H](N)CCCCNC(=O)[C@@H](N)CCCCNC(=O)CC[C@H](NC(=O)CCCCCCCCCCCCCCCCC(=O)O)C(=O)O)NC(=O)[C@H](CO)NC(=O)[C@H](Cc1ccc(O)cc1)NC(=O)[C@H](CC(=O)O)NC(=O)[C@H](CO)NC(=O)[C@@H](NC(=O)[C@H](Cc1ccccc1)NC(=O)[C@@H](NC(=O)CNC(=O)[C@H](CCC(=O)O)NC(=O)C(C)(C)NC(=O)[C@@H](N)Cc1ccc(O)cc1)[C@@H](C)O)[C@@H](C)O)C(=O)N[C@@H](CC(N)=O)C(=O)N[C@@H](Cc1c[nH]c2ccccc12)C(=O)N[C@@H](CC(C)C)C(=O)N[C@@H](CC(C)C)C(=O)N[C@@H](C)C(=O)NCC(=O)NCC(=O)N1CCC[C@H]1C(=O)N[C@@H](CO)C(=O)N[C@@H](CO)C(=O)NCC(=O)N[C@@H](C)C(=O)N1CCC[C@H]1C(=O)N1CCC[C@H]1C(=O)N1CCC[C@H]1C(=O)N[C@@H](CO)C(=O)O
Turning to B4, in the experiment with human GLP-1 receptor, the “hGLP-1R, CRE Luc 0% HSA EC50 (pM)” value came to 1.2 pM and the “hGLP-1R, CRE Luc 1% HSA EC50 (pM)” value is 31.4 pM. Moreover, in the experiment with human GIP receptor, the “hGIPR, CRE Luc 0% HSA EC50 (pM)” value was 4.9 pM and the “hGIPR, CRE Luc 1% HSA EC50 (pM)” value came out at 79.3 pM.

B5: Compound No. 3 (peptide)
peptide: Y[Aib]EGTFTSDYSYYLEK([εLys-εLys-γGlu-C18 diacid])QAAQEFVNWLLAGGPSSGAPPPS-NH2
modifications: N-terminus assumed
SMILES: CC(C)C[C@H](NC(=O)[C@H](CC(C)C)NC(=O)[C@H](Cc1c[nH]c2ccccc12)NC(=O)[C@H](CC(N)=O)NC(=O)[C@@H](NC(=O)[C@H](Cc1ccccc1)NC(=O)[C@H](CCC(=O)O)NC(=O)[C@H](CCC(N)=O)NC(=O)[C@H](C)NC(=O)[C@H](C)NC(=O)[C@H](CCC(N)=O)NC(=O)[C@H](CCCCNC(=O)[C@@H](N)CCCCNC(=O)[C@@H](N)CCCCNC(=O)CC[C@H](NC(=O)CCCCCCCCCCCCCCCCC(=O)O)C(=O)O)NC(=O)[C@H](CCC(=O)O)NC(=O)[C@H](CC(C)C)NC(=O)[C@H](Cc1ccc(O)cc1)NC(=O)[C@H](Cc1ccc(O)cc1)NC(=O)[C@H](CO)NC(=O)[C@H](Cc1ccc(O)cc1)NC(=O)[C@H](CC(=O)O)NC(=O)[C@H](CO)NC(=O)[C@@H](NC(=O)[C@H](Cc1ccccc1)NC(=O)[C@@H](NC(=O)CNC(=O)[C@H](CCC(=O)O)NC(=O)C(C)(C)NC(=O)[C@@H](N)Cc1ccc(O)cc1)[C@@H](C)O)[C@@H](C)O)C(C)C)C(=O)N[C@@H](C)C(=O)NCC(=O)NCC(=O)N1CCC[C@H]1C(=O)N[C@@H](CO)C(=O)N[C@@H](CO)C(=O)NCC(=O)N[C@@H](C)C(=O)N1CCC[C@H]1C(=O)N1CCC[C@H]1C(=O)N1CCC[C@H]1C(=O)N[C@@H](CO)C(N)=O
Regarding B5, in the experiment with human GLP-1 receptor, the “hGLP-1R, CRE Luc 0% HSA EC50 (pM)” value amounted to 8.5 pM and the “hGLP-1R, CRE Luc 1% HSA EC50 (pM)” value was 626 pM. For the same molecule, in the experiment with human GIP receptor, the “hGIPR, CRE Luc 0% HSA EC50 (pM)” value was 6.9 pM and the “hGIPR, CRE Luc 1% HSA EC50 (pM)” value was 229 pM.

Source of the values: patent publication US20230272029A1, “CO-AGONISTS AT GLP-1 AND GIP RECEPTORS SUITABLE FOR ORAL DELIVERY” (Novo Nordisk A/S, priority 2020, published 2023).
